Data as given in the supplement of paper PMC10065799, “High-throughput profiling of sequence recognition by tyrosine kinases and SH2 domains using bacterial peptide display” (eLife, 2023).

Experiments:
c-Src SH2 = assay: SH2 binding enrichment of the phosphorylated peptide, bacterial display (enrichment ratio); higher = better substrate or ligand; peptides without Tyr show the background
Grb2 SH2 = Grb2 SH2 (UniProt P62993); assay: as above
SHP2-C SH2 = assay: as above
AncSZ = assay: phosphorylation enrichment, bacterial display (enrichment ratio); higher = better substrate or ligand; peptides without Tyr show the background
Jak2 = Jak2 (UniProt O60674); assay: as above
Fes = Fes (UniProt P07332); assay: as above
Hck = Hck (UniProt P08631); assay: as above
c-Src = assay: as above
c-Abl (mouse) = assay: as above
MERTK = MERTK (UniProt Q12866); assay: as above
Fyn = Fyn (UniProt P06241); assay: as above
EPHB2 = EPHB2 (UniProt P29323); assay: as above
FGFR3 = FGFR3 (UniProt P22607); assay: as above
Fer (mouse) = assay: as above
EPHB1 = EPHB1 (UniProt P54762); assay: as above
FGFR1 = FGFR1 (UniProt P11362); assay: as above
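Throughout, for SH2 binding enrichment of the phosphorylated peptide, bacterial display: peptide library displayed on the E. coli surface as eCPX fusions, selected cells deep-sequenced, score is each peptide's frequency after selection divided by its frequency in the input.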
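Throughout, for phosphorylation enrichment, bacterial display: 11-residue human phosphosite peptides and single-mutation variants displayed on the E. coli surface, counted by deep sequencing, each peptide's frequency after selection divided by its frequency in the unselected input library; frequency after pTyr selection over input frequency; kinase dosed for 20-30% of maximal phosphorylation in three min.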

Fyn, sequence (P06241 whole entry, looked up): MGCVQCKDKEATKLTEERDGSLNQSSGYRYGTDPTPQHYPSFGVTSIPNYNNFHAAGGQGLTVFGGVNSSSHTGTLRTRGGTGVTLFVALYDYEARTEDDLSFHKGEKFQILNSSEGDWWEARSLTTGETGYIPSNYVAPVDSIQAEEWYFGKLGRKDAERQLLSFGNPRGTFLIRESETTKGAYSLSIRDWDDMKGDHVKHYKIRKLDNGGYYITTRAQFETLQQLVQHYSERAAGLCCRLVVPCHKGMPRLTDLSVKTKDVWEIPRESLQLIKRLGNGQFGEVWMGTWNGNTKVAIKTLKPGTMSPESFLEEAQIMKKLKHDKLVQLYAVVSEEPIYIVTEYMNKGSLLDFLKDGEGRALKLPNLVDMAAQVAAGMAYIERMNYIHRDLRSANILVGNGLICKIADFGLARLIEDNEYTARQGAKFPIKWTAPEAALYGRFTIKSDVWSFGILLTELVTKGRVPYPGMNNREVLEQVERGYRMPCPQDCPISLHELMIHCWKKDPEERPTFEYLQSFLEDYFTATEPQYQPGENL
Hck, sequence (P08631 whole entry, looked up): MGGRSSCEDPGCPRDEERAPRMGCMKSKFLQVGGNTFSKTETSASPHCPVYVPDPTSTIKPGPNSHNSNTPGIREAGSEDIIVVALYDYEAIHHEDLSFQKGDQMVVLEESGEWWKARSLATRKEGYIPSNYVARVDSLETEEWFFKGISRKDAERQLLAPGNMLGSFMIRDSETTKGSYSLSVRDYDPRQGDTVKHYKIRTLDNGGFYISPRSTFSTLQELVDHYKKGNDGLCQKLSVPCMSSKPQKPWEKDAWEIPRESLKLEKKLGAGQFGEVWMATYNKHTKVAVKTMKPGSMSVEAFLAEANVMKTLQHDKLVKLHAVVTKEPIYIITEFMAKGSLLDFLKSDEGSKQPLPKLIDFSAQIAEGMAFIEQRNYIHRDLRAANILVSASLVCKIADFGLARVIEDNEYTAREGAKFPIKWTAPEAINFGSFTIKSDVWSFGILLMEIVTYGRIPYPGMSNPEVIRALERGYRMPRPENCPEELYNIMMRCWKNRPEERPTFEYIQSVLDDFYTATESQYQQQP
Jak2, sequence (O60674 whole entry, looked up): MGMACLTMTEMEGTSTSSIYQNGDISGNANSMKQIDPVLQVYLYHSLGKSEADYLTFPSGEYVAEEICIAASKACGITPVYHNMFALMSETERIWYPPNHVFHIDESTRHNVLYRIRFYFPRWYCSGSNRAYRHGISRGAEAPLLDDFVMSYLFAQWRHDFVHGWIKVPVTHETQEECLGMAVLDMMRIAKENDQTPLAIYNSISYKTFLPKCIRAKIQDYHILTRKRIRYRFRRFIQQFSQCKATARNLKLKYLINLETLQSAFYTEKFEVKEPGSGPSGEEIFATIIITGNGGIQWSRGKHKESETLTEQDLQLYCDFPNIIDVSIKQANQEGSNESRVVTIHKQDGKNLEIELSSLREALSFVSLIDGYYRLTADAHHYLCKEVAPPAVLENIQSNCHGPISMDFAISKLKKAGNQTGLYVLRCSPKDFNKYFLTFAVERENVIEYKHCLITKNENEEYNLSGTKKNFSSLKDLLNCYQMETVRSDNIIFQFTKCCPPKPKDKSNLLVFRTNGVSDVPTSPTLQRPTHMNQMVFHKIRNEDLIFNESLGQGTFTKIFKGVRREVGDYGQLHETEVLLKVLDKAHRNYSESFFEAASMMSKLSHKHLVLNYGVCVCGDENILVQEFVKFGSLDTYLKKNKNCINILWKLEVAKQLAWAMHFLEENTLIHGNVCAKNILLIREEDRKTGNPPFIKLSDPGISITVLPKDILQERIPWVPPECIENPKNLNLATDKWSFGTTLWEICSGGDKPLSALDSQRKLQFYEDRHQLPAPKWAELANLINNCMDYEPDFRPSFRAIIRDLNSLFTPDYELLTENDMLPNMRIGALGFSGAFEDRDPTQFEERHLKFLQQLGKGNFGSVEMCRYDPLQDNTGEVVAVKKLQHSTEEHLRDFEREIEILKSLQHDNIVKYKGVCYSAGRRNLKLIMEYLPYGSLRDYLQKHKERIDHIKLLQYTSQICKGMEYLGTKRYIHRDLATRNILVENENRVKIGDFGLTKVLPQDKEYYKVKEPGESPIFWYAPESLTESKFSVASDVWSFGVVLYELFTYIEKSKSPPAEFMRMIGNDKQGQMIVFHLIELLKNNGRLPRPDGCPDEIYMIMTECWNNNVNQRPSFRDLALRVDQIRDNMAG
FGFR3, sequence (P22607 whole entry, looked up): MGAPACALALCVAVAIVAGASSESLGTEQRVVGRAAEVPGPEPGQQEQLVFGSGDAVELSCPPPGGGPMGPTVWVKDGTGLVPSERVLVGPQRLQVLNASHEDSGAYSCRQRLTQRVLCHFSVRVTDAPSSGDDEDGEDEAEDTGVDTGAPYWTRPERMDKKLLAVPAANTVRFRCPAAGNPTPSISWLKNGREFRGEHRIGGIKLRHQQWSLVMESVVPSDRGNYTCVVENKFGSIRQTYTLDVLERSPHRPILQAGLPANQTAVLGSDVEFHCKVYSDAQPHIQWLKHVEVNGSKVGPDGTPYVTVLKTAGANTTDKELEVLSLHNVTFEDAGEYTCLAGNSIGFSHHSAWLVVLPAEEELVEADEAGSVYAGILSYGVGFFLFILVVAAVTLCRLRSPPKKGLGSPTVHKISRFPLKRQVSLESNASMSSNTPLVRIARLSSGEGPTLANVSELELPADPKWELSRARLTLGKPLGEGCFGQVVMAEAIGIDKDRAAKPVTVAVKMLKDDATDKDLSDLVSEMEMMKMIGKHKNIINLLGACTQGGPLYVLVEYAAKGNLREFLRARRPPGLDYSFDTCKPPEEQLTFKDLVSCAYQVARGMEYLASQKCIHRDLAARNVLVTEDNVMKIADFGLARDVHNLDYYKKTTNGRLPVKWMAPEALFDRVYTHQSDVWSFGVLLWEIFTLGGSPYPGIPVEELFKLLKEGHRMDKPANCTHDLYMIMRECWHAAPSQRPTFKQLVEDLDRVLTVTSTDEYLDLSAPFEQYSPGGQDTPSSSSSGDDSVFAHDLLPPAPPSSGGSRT
EPHB2, sequence (P29323 whole entry, looked up): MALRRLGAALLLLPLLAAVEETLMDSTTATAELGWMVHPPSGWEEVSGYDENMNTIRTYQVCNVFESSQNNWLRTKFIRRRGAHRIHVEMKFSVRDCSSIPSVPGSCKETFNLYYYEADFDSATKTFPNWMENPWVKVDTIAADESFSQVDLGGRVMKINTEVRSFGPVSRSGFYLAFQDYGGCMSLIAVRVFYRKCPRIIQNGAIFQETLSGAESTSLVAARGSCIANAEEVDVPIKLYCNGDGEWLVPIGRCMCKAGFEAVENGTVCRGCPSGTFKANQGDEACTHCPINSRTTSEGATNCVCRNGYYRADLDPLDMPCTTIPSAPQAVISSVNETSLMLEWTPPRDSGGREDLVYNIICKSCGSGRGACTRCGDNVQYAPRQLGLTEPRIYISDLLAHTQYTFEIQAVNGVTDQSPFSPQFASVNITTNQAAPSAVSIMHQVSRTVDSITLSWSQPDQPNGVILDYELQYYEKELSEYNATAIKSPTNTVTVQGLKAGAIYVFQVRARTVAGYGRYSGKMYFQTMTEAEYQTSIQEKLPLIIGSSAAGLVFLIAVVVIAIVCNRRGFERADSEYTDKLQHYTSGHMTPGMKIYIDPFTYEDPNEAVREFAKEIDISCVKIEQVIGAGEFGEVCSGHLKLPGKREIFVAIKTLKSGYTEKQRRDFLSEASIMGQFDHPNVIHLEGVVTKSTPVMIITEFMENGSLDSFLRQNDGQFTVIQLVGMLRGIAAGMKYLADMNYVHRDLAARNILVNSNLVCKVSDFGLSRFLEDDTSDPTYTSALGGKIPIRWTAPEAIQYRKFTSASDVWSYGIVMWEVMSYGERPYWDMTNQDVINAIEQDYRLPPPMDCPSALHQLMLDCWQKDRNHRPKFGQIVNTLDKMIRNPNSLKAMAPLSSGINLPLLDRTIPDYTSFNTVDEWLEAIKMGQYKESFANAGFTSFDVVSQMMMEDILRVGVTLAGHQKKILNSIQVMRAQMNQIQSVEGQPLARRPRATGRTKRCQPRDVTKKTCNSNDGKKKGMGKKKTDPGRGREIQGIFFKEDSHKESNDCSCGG
MERTK, sequence (Q12866 whole entry, looked up): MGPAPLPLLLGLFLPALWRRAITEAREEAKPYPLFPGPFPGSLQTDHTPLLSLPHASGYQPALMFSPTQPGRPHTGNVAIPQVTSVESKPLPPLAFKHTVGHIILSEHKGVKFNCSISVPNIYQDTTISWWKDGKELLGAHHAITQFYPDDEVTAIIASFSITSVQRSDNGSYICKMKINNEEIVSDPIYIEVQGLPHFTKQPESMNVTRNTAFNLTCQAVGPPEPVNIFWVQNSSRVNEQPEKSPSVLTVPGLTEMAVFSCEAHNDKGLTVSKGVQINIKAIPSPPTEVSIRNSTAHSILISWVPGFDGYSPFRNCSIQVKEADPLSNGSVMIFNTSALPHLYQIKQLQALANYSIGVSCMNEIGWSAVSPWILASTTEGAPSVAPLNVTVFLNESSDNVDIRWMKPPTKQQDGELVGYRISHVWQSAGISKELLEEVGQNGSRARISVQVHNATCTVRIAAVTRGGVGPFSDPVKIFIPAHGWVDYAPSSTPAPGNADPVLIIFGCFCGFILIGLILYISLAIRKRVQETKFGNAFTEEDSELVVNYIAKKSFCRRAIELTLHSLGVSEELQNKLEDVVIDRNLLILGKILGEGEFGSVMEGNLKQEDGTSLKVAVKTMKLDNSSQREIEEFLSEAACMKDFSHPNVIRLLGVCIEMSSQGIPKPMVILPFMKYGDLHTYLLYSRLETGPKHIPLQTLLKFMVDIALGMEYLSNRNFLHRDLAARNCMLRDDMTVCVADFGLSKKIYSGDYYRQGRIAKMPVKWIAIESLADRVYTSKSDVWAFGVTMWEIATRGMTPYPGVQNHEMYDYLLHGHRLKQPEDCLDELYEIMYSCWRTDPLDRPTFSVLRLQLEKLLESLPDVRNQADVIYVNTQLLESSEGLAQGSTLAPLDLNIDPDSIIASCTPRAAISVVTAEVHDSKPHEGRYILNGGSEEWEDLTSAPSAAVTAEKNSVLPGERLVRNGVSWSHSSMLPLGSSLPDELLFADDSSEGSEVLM

Row | SH2 binding enrichment (c-Src SH2) | SH2 binding enrichment (Grb2 SH2) | SH2 binding enrichment (SHP2-C SH2) | Sequence | phosphorylation enrichment (AncSZ) | phosphorylation enrichment (Jak2) | phosphorylation enrichment (Fes) | phosphorylation enrichment (Hck) | phosphorylation enrichment (c-Src) | phosphorylation enrichment (c-Abl (mouse)) | phosphorylation enrichment (MERTK) | phosphorylation enrichment (Fyn) | phosphorylation enrichment (EPHB2) | phosphorylation enrichment (FGFR3) | phosphorylation enrichment (Fer (mouse)) | phosphorylation enrichment (EPHB1) | phosphorylation enrichment (FGFR1)
1 | 0.925 | 1.22 | 0.956 | NTQRPHFKGGG [TYROBP_Y111_Y111H_YF] | 0.447 | 0.553 | 0.735 | 0.407 | 0.448 | 1.01 | 0.353 | 0.286 | 0.632 | 0.443 | 0.293 | 0.378 | 0.318
2 | 0.415 | 0.829 | 0.532 | SVVVPYEPREV [TP53_Y220_P223R] | 0.813 | 0.746 | 0.998 | 0.453 | 0.472 | 0.656 | 0.373 | 0.473 | 0.506 | 0.597 | 0.465 | 0.53 | 0.527
3 | 0.46 | 1.01 | 0.609 | PHRSIYFSSPK [MPG_Y75_Y71H] | 0.498 | 0.584 | 0.859 | 1.48 | 0.786 | 0.862 | 0.687 | 0.982 | 0.61 | 0.927 | 0.663 | 0.674 | 0.803
4 | 1.13 | 0.828 | 0.801 | VCRHNYGVVES [HLA-DRB1_Y112_Y107V] | 0.768 | 0.659 | 0.793 | 0.484 | 0.361 | 0.543 | 0.484 | 0.398 | 1.5 | 0.566 | 0.428 | 0.82 | 0.547
5 | 0.824 | 0.925 | 0.915 | IRCQGYSHRIL [MYO3B_Y993_R990C] | 0.723 | 0.649 | 0.664 | 0.475 | 0.523 | 0.493 | 0.471 | 0.493 | 0.558 | 0.506 | 0.47 | 0.46 | 0.423
6 | 1.3 | 1.59 | 1.5 | YMRGMYFRMKD [PLA2G6_Y541] | 0.924 | 1.16 | 0.947 | 0.44 | 0.384 | 0.657 | 0.439 | 0.416 | 0.523 | 0.589 | 0.423 | 0.42 | 0.462
7 | 0.514 | 0.982 | 0.687 | TFEPNYGTVKR [RAPGEF6_Y1447_Q1452R_YF] | 0.707 | 0.497 | 0.586 | 2.72 | 2.66 | 0.691 | 0.385 | 3.76 | 1.45 | 0.45 | 0.701 | 0.55 | 0.448
8 | 0.498 | 1.09 | 0.778 | QKMLDYLKEKK [RYR2_Y3780] | 0.9 | 0.579 | 1.1 | 0.491 | 0.513 | 0.533 | 0.398 | 0.542 | 0.345 | 0.673 | 0.442 | 0.401 | 0.553
9 | 1.44 | 1.1 | 1.26 | HILRVYSGVLP [PCNX4_Y999_G1000S] | 0.968 | 0.867 | 1.22 | 1.15 | 0.745 | 0.872 | 0.576 | 1.1 | 0.651 | 1.12 | 0.612 | 0.841 | 0.671
10 | 0.799 | 1.04 | 1.35 | CLMILHRLKER [PTPRR_Y249_Y249H] | 1.05 | 1.03 | 1.19 | 0.426 | 0.395 | 0.548 | 0.437 | 0.464 | 0.569 | 0.575 | 0.516 | 0.496 | 0.436

The remaining lines, values behind:

Row | Sequence | SH2 binding enrichment (c-Src SH2) | SH2 binding enrichment (Grb2 SH2) | SH2 binding enrichment (SHP2-C SH2) | phosphorylation enrichment (AncSZ) | phosphorylation enrichment (Jak2) | phosphorylation enrichment (Fes) | phosphorylation enrichment (Hck) | phosphorylation enrichment (c-Src) | phosphorylation enrichment (c-Abl (mouse)) | phosphorylation enrichment (MERTK) | phosphorylation enrichment (Fyn) | phosphorylation enrichment (EPHB2) | phosphorylation enrichment (FGFR3) | phosphorylation enrichment (Fer (mouse)) | phosphorylation enrichment (EPHB1) | phosphorylation enrichment (FGFR1)
11 | SLKAFYGEDAK [ALDH3A1_Y272_E270A] | 0.68 | 0.891 | 0.663 | 0.603 | 0.58 | 0.724 | 0.456 | 0.489 | 0.562 | 0.332 | 0.416 | 0.369 | 0.538 | 0.417 | 0.395 | 0.433
12 | KQQEIYQELTQ [CD209_Y239] | 0.585 | 1.14 | 0.673 | 1.35 | 0.917 | 1.07 | 6.43 | 5.59 | 1.77 | 4.81 | 6.33 | 3.03 | 2.3 | 3.56 | 5.8 | 3.1
13 | KFEDVYVGICL [B3GALNT1_Y269] | 0.458 | 0.647 | 0.41 | 1.37 | 1.16 | 1.33 | 1.99 | 2.92 | 1.02 | 0.592 | 3.06 | 0.715 | 1.24 | 2.52 | 0.857 | 1.23
14 | LASSEYPVQRR [GALK1_Y236_R239Q] | 0.256 | 1.16 | 0.794 | 0.732 | 1.06 | 1.32 | 0.761 | 0.707 | 1.03 | 0.554 | 1.07 | 0.308 | 1.17 | 0.981 | 0.381 | 0.58
15 | FVHDNYVIRRT [CPS1_Y1450] | 0.416 | 0.655 | 0.517 | 0.772 | 0.714 | 0.739 | 0.489 | 0.536 | 0.418 | 0.391 | 0.446 | 0.499 | 0.467 | 0.435 | 0.376 | 0.4
16 | ETDPRYFDEEF [AKT1_Y437_T435P] | 0.507 | 0.946 | 0.501 | 1.36 | 1.29 | 1.31 | 0.611 | 0.563 | 0.886 | 0.483 | 0.565 | 0.604 | 0.787 | 0.6 | 0.625 | 0.548
17 | HESEIYGKVCF [CSRP3_Y57_C58G_YF] | 0.456 | 0.998 | 0.672 | 1.58 | 1.19 | 1.71 | 3.95 | 4.61 | 1.34 | 1.24 | 6.51 | 0.911 | 0.939 | 6.89 | 0.885 | 0.813
